Patent publication US20110189084A1, “Method for Treating Liver Disorders with Receptor Associated Protein (RAP) Peptide-Fucosidase Inhibitor Conjugates” (RAPTOR PHARMACEUTICAL INC., priority 2010, published 2011)
Bridge positions count the residues as written; N and C are the ends. Ends that are not written are not given here.

Legend:
[1] = biological target: T1, human liver alpha-L-fucosidase (Homo sapiens, UniProt P04066); conditions: ref [12]; cited from earlier work
T1 sequence (P04066 32-466): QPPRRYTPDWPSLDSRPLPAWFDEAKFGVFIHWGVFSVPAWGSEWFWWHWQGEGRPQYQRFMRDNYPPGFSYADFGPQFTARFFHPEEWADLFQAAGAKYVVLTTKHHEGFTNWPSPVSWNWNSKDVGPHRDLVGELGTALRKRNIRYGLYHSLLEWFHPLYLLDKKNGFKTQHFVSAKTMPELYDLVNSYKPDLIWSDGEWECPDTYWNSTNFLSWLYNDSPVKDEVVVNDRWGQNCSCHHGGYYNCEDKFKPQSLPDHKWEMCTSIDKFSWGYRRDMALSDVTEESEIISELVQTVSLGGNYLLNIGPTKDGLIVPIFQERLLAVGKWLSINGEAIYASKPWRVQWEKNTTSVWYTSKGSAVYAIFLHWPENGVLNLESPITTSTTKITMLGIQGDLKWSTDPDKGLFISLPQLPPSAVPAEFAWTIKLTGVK

[2] = biological target: T2, lysosomal fucosidase (Homo sapiens, UniProt P04066); experiment: fucosidase activity in lysates of treated HepG2 cells (4-MU-fucopyranoside); format: cell-based; conditions: 72 hours, versus buffer
T2 construct: Fucosidase activity in 20 μL of each lysate sample was measured; endogenous in cells; host or cells: HepG2
T2 sequence (P04066 32-466): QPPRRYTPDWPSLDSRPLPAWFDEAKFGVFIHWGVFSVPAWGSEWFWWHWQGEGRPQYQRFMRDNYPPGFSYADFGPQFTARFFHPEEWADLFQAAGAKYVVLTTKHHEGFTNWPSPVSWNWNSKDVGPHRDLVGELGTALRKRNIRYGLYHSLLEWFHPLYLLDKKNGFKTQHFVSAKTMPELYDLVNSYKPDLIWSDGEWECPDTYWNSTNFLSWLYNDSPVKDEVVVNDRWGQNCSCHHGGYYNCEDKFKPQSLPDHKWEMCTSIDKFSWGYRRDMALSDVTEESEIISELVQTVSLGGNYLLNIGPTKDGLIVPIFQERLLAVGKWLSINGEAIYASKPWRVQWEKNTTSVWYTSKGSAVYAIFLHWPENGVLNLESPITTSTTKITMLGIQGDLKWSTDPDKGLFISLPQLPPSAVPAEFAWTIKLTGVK
Description: HepG2 human hepatocellular carcinoma cells were seeded in 6-well tissue culture plates at 4×10^5 per well. […] Cells were then washed with cold PBS, scraped into a microfuge tube, pelleted and lysed. Total protein concentration was determined by Bradford assay for each sample and lysate volumes adjusted to 0.3 mg/mL. Fucosidase activity in 20 μL of each lysate sample was measured by adding 100 μL of 0.5 mM 4-MU-fucopyranoside with subsequent incubation at 37° C. for 30 minutes. Reactions were quenched with 130 μL of 600 mM citrate/carbonate buffer at pH 9. Released 4-MU was assayed in a fluorescence microplate reader (see Example 1 above). […] Duplicate sample activity values were averaged and plotted.

[3] = cited from earlier work
[4] = intravenously administered, rodent and feline species; cited from earlier work
[5] = biological target: T3, LRP1 (Homo sapiens, UniProt Q07954); conditions: read-out: affinity for LRP1; cited from earlier work
T3 sequence (Q07954 786-1165 limits assumed): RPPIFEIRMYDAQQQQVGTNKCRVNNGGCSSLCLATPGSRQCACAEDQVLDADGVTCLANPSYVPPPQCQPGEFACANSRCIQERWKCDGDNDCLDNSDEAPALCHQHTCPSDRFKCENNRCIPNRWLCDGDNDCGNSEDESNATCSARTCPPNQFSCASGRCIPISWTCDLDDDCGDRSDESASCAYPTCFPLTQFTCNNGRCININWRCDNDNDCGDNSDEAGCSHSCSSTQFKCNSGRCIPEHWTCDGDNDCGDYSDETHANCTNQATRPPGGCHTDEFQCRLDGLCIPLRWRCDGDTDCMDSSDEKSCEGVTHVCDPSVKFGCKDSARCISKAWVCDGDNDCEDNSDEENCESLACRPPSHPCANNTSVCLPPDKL

In the case of `CCCCN1C[C@H](O)[C@@H](O)[C@H](O)[C@H](C(=O)O)C1` [Faz, (3R,4R,5S,6S)-1-butyl-4,5,6-trihydroxyazepane-3-carboxylic acid], the “potency of fucosidase inhibition” value [1] is listed as “low nanomolar range”.

For `C[C@@H]1NC[C@@H](O)[C@H](O)[C@@H]1O` [L-deoxyfuconojirimycin], the inhibition at 30 µM [2] was over 50%.

For “RAP: mature receptor associated protein, 323 amino acid peptide, SEQ ID NO: 1”, the circulating half-life ([3]; injected RAP, intravenous) is given as “less than a minute”, the “exogenous RAP accumulating in the liver” value ([3]; intravenous bolus injection of 30 picomoles, within 10 minutes) is given as “over 70%” and the “accumulation in heart, brain, muscle or kidney” value ([3]; intravenous) is given as < 1 % of injected dose. For the same molecule, the toxicity [4] was “no measurable toxicity”.

For “mRAP14c: RAP residues 250-309 with substitutions F250C, L308G and Q309C (CEAKIEKHNHYQKQLEIAHEKLRHAESVGDGERVSRSREKHALLEGRTKELGYTVKKHGC; disulfide 1-60 (inferred))”, the Kd [5] is listed as about 0.021 µM.

B1: mRAPc: RAP d3 with the modifications A242G, R314G, E241C and I315C (peptide)
chain: CGFREELKHFEAKIEKHNHYQKQLEIAHEKLRHAESVGDGERVSRSREKHALLEGRTKELGYTVKKHLQDLSGGC
In the case of B1, the Kd [5] is given as about 0.01 µM.
